# Results as given in a protein production outcome set (Wang et al. 2014).
# Experiment: label from the status in PepcDB records
# 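Note: failed if final PepcDB status was selected cloned or expressed and not failed if soluble or beyond.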
row,Sequence,protein production
1,MANPLYHKHIISINDLSRDELELVLRTAASLKKTPQPELLKHKVIASCFFEASTRTRLSFETSIHRLGASVVGFSDSSNTSLGKKGETLADTMSVISTYVDAIVMRHPQEGASRLAAQFSGNVPIVNAGDGANQHPTQTLLDLFTIQETQGRLDNINIAMVGDLKYGRTVHSLTQALAKFNGNHFFFIAPDALAMPAYILQMLEEKEIEYSLHESLEEVVPELDILYMTRVQKERLDPSEYANVKAQFILRSSDLTGARDNLKVLHPLPRIDEITTDVDKTPYAYYFQQAGNGIFARQALLALVLNAELAL,not failed
2,MANPNEAYRHYMKKLSYETDIADLSIDIKKGYEGIIVVDVRDAEAYKECHIPTAISIPGNKINEDTTKRLSKEKVIITYCWGPACNGATKAAAKFAQLGFRVKELIGGIEYWRKENGEVEGTLGAKADLFWNMKKESLEHHHHHH,not failed
3,MANSETSLQARLWKTLSQSPDVRLWRNNVGTCKAADGRFVRFGLCPGSSDLIGLTRVTITPDMVGQTIALFTAIEVKTPTGRVTPEQQSFIDFVQRSGGRAGVARSMQDANKIISGEGHVLEHHHHHH,failed
4,MANSITADEIREQFSQAMSAMYQQEVPQYGTLLELVADVNLAVLENNPQLHEKMVNADELARLNVERHGAIRVGTAQELATLRRMFAIMGMYPVSYYDLSQAGVPVHSTAFRPIDDASLARNPFRVFTSLLRLELIENEILRQKAAEILRQRDIFTPRCRQLLEEYEQQGGFNETQAQEFVQEALETFRWHQSATVDEETYRALHNEHRLIADVVCFPGCHINHLTPRTLDIDRVQSMMPECGIEPKILIEGPPRREVPILLRQTSFKALEETVLFAGQKQGTHTARFGEIEQRGVALTPKGRQLYDDLLRNAGTGQDNLTHQMHLQETFRTFPDSEFLMRQQGLAWFRYRLTPSGEAHRQAIHPGDDPQPLIERGWVVAQPITYEDFLPVSAAGIFQSNLGNETQTRSHGNASREAFEQALGCPVLDEFQLYQEAEERSKRRCGLLLEHHHHHH,not failed
5,MANVKLLLPYILKWEGGFVHDPADAGGATNKGVTIATWKRVGYDKDGDGDIDVEDLKLLTDDDVLNRVLKPFYWDRWKADLIESQKVANILVDWVWGSGKYGIVIPQRILGVQADGIVGNKTLQAVNSADPDELFESIFDARREFLEDITARSIKKYEDSIGRKATERELLRHTNKRFLRGWLNRLEDIRKL,not failed
6,MANYEFSQVSGDRPGCRLSRKAQIGLGVGLLVLIALVVGIVVILLRPRSLLVWTGEPTTKHFSDIFLGRCLIYTQILRPEMRDQNCQEILSTFKGAFVSKNPCDITREDYAPLVKLVTQTIPCDKTLFWSKSKHLAHQYTWIQGKMFTLEDTLLGYIADDLRWCGDPSTSDMNYVSCPHWSENCPNNPITMFWKVISQKFAEDACGVVQVMLDGSLREPFYKDSTFGSVEVFSLDPNKVHKLQAWVMHDIEGASSNACSSSSLNELKMIVQKRNMIFACVDNYRPARFLQCVKNPEHPSCRLNT,not failed
7,MAPAEPACRCAAAPCSSMIGIDRGSAARLILFRKTFYNIEHTFGRLIVASDLRGLAKYVEPGIRLAVPVDYAGVSMAMTRPIIERKAGNLHLICVPTGGLQVDQLIGSGLVRTVETSAVTLGEAGGAPRFNAAVKDGSIKLMDATCPAIHAGLMAAQKGSPFMPMRGLIGSDILRHRKDWRVIDNPLSDGGDPVVLIPAIKPDVTIFHAPMADRFGNVWIGRRRELAAMAYASATTLVTVERIVEESLLANEITAAGVLPAIYVTEVALAPKGAWPYGLWGEYQTDTQELVRYARAARTAEGFADYMATTQMEPA,failed
8,MAPDASTALAAREKVQQILNAACTGNLEFLKNVAKQLDEGKDLTKTVESIKDANKRGALHFAAREGQTEICRYLLEELKLNADAKDETGDTPLVHAARQGQIETVKYLLEQGADPNIASELGATALHHAAGTGEIELLKELLSRGVPVDSESESGTPLIWAAGHDQKNAVEVLLEHNANPNAETEDNITPLLSAVAAGSLSCLELLVKAGAKANVFAGGATPLHIAADIGNLELINCLLKAGADPNQKDEEGNRPLEVAAARDNRKVVEILFPLTTKPETVSDWTVDGILAHMESNKEQEENSNKAKSQETGIKKDLPVVSPEAKAKAAEAKARGQDAFHRKDFQMAIDAYTQAIDFDPTDHTLFSNRSLCWLRLGQAEHALSDAKACRELNPDWPKGCFREGAALRLLQRFDEAANAFYEGVLLSPESKELIDAFREAVDAGRKFHGKGEVKAKS,failed
9,MAPRYDTLFYDGSCPLCAREIRTLRRLQTGNLIFADIHEQNPSNQQLPSREQLLRRLHLMSWNGEWVTGLHANVRAWSHTRFGWLFKPLLWPVIHPIASRIYETWADKRYGRKYACAMGHENSCPPGT,failed
10,MAPSCLKMAHMRLLLTSFGHDHIRDFVRGTVAYIPDATRLFADSPEAAPFMETERNMLREHGLSIRELPISTSTPEEVDRVLGEVDGVYVAGGETFDLMWLLRSTGNDEVLIKHVRAGLPYIGTSAGAVIAGPSIEPISFLDSPDVAPNLSDYSGLGLCEHVVVPHAGGTIPQFPIDVFAETVRTYGAEFPLVLLKDGQALLIDDHGVHLILEHHHHHH,not failed
11,MAPTIRLPFRRTLALLASATILAQTGMSGIAFAQTSPETAVPGVAAPVPAAPTPPASTPQQTPPVQTVVPTNGPASVADLAEGLLDAVVNISTSQNVKDDEGVGPAPRAPDGSPFQEFFNDFFNKKQGNKGPNHNVSSLGSGFVIDPAGYIVTNNHVIEGADDIEVNFANGSKLKAKLIGTDTKTDLSVLKVEPKTPLKSVKFGDSSEMRIGDWVMAIGNPFGFGGSVTVGIISGRGRNINAGPYDNFIQTDAAINKGNSGGPLFNMKGEVIGINTAIISPSGGSIGIGFSVPSELASGVVEQLRQYGETRRGWLGVRIQPVTDDIADSLGLDTAKGALVAGVIKGGPVDDGSIKAGDVILKFDGKTVNEMRDLPRVVAESTVGKEVDVVVLRDGKEQTVKVKLGRLEDSDQAASGDASPDGSQDGVITPDPDENDDMDQPDTGDQVAPAPGAPAPDQHQQGQVSPDAATPKNVLGLSLSLLSPETRKAFGIAESVDGVVVTEVEPGSASAEKGLKPGDVIVEVAQEFMKSPDAVAAKVKSLKQEGRRNAQLMIASANGDLRFVAVPME,failed
12,MAPTLAGPNVAGDCFPGASGCIVLPMSGSLSLHIAAFLALLPAAFTPLRQTPGRDGLFWGTLGVAIIGALVVSIVPSLRQGMWSTSFSSALWVSIAATLLLFSELCFRHQAAWRLTPVLMPYLIALGAMATIWEGAEGAPLADHAPAFWTVLHIVIAVLTYGMLTLGAVAALAGFLQERALKARRPTSLTRRLPAAAEADRLSWILLYTSEWVLGAGLLTGMAVEYLETGAILQPDHKSMLSSLAFLVIGGLILARSRWGVRGRVGARVVLLAYLLLTLAFPGVKFVSDVLL,failed
13,MAPTLQGQWIKVGQKGGTGPGPRSSHGIAAVGDKLYSFGGELTPNKHIDKDLYVFDFNTQTWSIAQPKGDAPTVSCLGVRMVAVGTKIYIFGGRDENRNFENFRSYDTVTSEWTFLTKLDEVGGPEARTFHSMASDENHVYVFGGVSKGGTMNTPTRFRTIEAYNIADGKWAQLPDPGDNFEKRGGAGFAVVQGKIWVVYGFATSIVPGGKDDYESNAVQFYDPASKKWTEVETTGAKPSARSVFAHAVVGKYIIIFAGEVWPDLNGHYGPGTLSNEGYALDTETLVWEKLGEEGAPAIPRGWTAYTAATVDGKNGLLMHGGKLPTNERTDDLYFYAVNSA,failed
14,MAQATSPIELALTTGRGHQAEVRLAKPDGSYLPVIASCNPLNRSDGGIVLTLNDISELRSAERAVSDRAEELATLNRELKETSQATTRLVKLGELLQACVTFHEAFSVVGSAMPDFFGGLSGTVHLTSASRNLVEEMAHWGAVRSSVGQFAPEDCWALRRGQEHVAGPGMLTPRCNHITENGGRGYVCMPLAAQGETLGIVHLCEPDAADRPDWLTERQQILRGVVDTLALALANLRLRETLRQQSIRDPNTGLYNRRYLEETSSRELRRMERSGQPLAMIMLDVDHFKQFNDTFGHEAGDLVLKQVAATLLDHARESDVVSRYGGEEFALMMPGTSLADAAERAEALRKAIKQLHLTHRGRTLGTITASFGVSAFPELGASWVEIVNAADRSLYQAKADGRDRVVAGLGRADPQWDLSTASQSVA,failed
15,MAQEEAGRLPQVLARVGTSHGITDLACKLRFYDDWAPEYDQDVAALKYRAPRLAVDCLSQALQGPPHDALILDVACGTGLVAVELQARGFLQVQGVDGSPEMLKQARARGLYHHLSLCTLGQEPLPYPKGTFDAVIIVGALSEGQVPCSAIPELLRVTKPGGLVCLTTRTNPSNLPYKEALEAALDSLEQAGAWERLVTQPVDHWELATSEQESGLATCANDGFISGVIYLYRKQETAQGERGRLSIQPLIDH,failed
16,MAQFPTPFGGSLDIWAITVEERAKHDQQFHSLKPISGFITGDQARNFFFQSGLPQPVLAQIWALADMNNDGRMDQVEFSIAMKLIKLKLQGYQLPSALPPVMKQQPVAISSAPPFGMGGIASMPPLTAVAPVPMGSIPVVGMSPTLVSSVPTAAVPPLANGAPPVIQPLPAFAHPAATLPK,failed
17,MAQGNPLTPEEIELLHAGDEENDNTDTLMVIRVPNDGSSATAISIPRDTYVHDENVGNLKINGVYRAYKNRKASELVNSGESDQKHIDELSKEAGRKALISSISDLTGVTVDHYAEVGLLGFVLLTNAVGGVDVCLNNDVYDEFSGADFKAGQQTLRDGQALAFVRQRHGLPRGDLDRIVRQQAFMASLVAKVLSSGTLTNPSKLSDLGEAVSRSVVIDKNWDVMSFANQLQNLAGGNVKFNTIPVTSIDGVGDYGESVVTVDKNQVHQFFDRLLNGNNGEETPTSDSEAPAENPHTSTTIDVLNATSTTGLASQVAGHLSAKHYTIGNIGNALEGMYHESQIVAADPNNEAVKAIAAELGGLPITQRNDLEHHHHHH,failed
18,MAQKMTGALVFDERTDRYDIRFDLNSYYGGLHCGECFDVFVRGKWKPTRIEYGDNWYLVGIRAEDLNGLRVRI,failed
19,MAQPKFVVAEIVEMEDHPDSDHLHICKVNVGFADPVQIVCGAPNAALGLKTVAALPGAMMPNGSLIFPGALRGVQSYGMLCSALEHHHHHH,failed
20,MAQPSTTYKFELNLTDLDRNVYESVKQTIARHPSETEERMAVRLLAYALWYNENLSFGRGLSDVDEPALWEKSLDDRVLHWIEVGQPDADRLTWCSRRTERTSLLAYGSLRVWEGKVVSAVKNLKNLSIAAVPQEVLETLATDMPRSIKWDVMISEGTVFVTDDRGQHEVQLQWLLGERG,not failed
21,MAQQFIDIGANLTDDNYFGNYHGKHYHEEDIDVVLQRAERNGLSHIIITSGCLNDFKKAIEIINKYQNLTNIKLVTTIGVHPTRTNELKQEGYLDELLLLCEKNIDKVVAIGEIGLDYERLQFSDKETQLSGYRTLSILHQKYPYLPFFFHCRKSWSDLCQLNKELGYNGCKGVVHCFDGTEEEMNQILNEGWDIGVTGNSLQSIELLNVMKQIPIERLHIETDCPYCGIKKTSAGFKYLKEKDFGVKVEKYQRNKYVQRRNEPSNIIDIAIIMSSIKHISLFEFVNKVYSNSMNMYFPTMN,not failed
22,MAQQWSLQRLAGRHPQDSYEDSTQSSIFTYTNSNSTRGPFEGPNYHIAPRWVYHLTSVWMIFVVIASVFTNGLVLAATMKFKKLRHPLNWILVNLAVADLAETVIASTISVVNQVYGYFVLGHPMCVLEGYTVSLCGITGLWSLAIISWERWMVVCKPFGNVRFDAKLAIVGIAFSWIWAAVWTAPPIFGWSRYWPHGLKTSCGPDVFSGSSYPGVQSYMIVLMVTCCITPLSIIVLCYLQVWLAIRAVAKQQKESESTQKAEKEVTRMVVVMVLAFCFCWGPYAFFACFAAANPGYPFHPLMAALPAFFAKSATIYNPVIYVFMNRQFRNCILQLFGKKVDDGSELSSASKTEVSSVSSVSPA,failed
